The record followed here is paper PMC6042779.

The assay has as its target SRC (UniProt P12931). As to the kind of experiment: bead-immobilized peptide pulldown of SRC-GST. To be noted: reference: nonphosphorylated FAK peptide; sites Y397.

In the case of “FAK FERM-kinase linker region, 358-409 (from UniProt P34152) pY397 FAK peptide”, the “binding against the reference” value is “gained”.
